Assay [1] addresses base-linker-oligodeoxynucleotide conjugate (compound 8). Briefly: phage without acid peptide incubated with biotinylated oligodeoxynucleotide-peptide B conjugate, captured on streptavidin beads, phage titering.
For assay [2], the target named is base-linker-pTp conjugate (compound 9). The assay can be described thus: phage crosslinked to biotinylated base-linker-pTp conjugate, captured on streptavidin beads, titered by direct infection with the beads.
Assay [3] addresses base-linker-oligodeoxynucleotide conjugate (compound 8). The assay can be described thus: phage crosslinked to biotinylated base-linker-oligodeoxynucleotide conjugate, captured on streptavidin beads, titered after DNase I release.
The target is the same in assay [4]. The assay can be described thus: phage crosslinked to biotinylated base-linker-oligodeoxynucleotide conjugate in EDTA, captured on streptavidin beads, titered by direct infection with the beads.

Turning to “wildtype pIII protein on phage produced with wildtype M13K07 helper phage (from UniProt P69168 19-424)”, the percent of phage immobilized in assay [1] is 0.3%.

In the case of “acid peptide A-pIII fusion displayed on acid helper phage (M13K07 helper phage with the acidic peptide A and a C-terminal GGC extension inserted at the N-terminus of pIII) (from UniProt P69168 1-3)”, in assay [2], the efficiency of phage immobilization worked out at 10%. The same substance yielded a true immobilization efficiency in assay [3] of 80%. In assay [4], this substance returned an efficiency of immobilization of 10%.

Values taken from patent US6867010.
